Measurements from patent EP2420830B1 (Forschungsverbund Berlin e.V., dated 2016).
Positions count from the first letter of the chain named.

Tests used:
[1] = target: T1, GGA2 (from HeLa cell lysate) (human (HeLa cells), UniProt Q9UJY4 1-613); experiment: GST pull-down from HeLa cell extract, immunoblot
T1 sequence (looked up): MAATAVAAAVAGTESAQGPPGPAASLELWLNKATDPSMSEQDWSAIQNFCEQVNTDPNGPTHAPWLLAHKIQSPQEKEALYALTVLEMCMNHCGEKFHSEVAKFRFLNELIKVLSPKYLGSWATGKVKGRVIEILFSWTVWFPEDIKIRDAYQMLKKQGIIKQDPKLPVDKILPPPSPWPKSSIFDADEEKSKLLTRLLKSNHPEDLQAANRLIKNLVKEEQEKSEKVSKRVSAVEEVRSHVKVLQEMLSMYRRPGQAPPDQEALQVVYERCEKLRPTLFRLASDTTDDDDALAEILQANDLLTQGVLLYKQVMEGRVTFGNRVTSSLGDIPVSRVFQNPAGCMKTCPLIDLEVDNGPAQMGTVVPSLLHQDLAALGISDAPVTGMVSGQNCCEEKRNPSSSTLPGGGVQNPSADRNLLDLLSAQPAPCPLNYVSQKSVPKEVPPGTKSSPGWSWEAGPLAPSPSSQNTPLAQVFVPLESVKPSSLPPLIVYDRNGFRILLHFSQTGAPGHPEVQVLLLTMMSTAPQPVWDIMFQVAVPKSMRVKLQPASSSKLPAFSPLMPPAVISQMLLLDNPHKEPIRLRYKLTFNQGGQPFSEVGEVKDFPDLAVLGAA

[2] = target: T2, GGA3 (from HeLa cell lysate) (human (HeLa cells), UniProt Q9NZ52 1-723); experiment: GST pull-down from HeLa cell extract, immunoblot
T2 sequence (looked up): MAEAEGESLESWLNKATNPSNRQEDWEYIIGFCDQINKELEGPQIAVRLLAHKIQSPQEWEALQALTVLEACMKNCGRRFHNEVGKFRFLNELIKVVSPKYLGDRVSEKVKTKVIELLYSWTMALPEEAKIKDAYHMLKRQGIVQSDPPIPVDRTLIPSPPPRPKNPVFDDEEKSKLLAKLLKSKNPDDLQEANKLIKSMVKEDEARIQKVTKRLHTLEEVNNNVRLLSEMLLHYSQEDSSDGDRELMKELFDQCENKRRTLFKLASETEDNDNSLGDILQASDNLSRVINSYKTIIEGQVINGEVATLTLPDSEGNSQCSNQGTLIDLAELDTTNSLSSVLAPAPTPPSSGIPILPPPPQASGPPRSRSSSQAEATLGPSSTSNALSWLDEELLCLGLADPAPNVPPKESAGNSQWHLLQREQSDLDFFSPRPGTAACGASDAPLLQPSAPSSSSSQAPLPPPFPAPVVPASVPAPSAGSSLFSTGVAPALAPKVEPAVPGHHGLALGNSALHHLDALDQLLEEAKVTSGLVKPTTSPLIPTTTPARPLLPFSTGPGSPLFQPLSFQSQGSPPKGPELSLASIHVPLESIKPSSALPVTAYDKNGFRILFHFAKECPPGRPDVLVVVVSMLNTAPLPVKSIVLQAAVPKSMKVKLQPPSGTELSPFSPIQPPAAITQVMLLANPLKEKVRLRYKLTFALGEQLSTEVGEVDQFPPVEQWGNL

B1: GST fusion protein of the human CIC-7 N-terminus, mutant combining LL23/24AA and LL68/69AA (2xLLAA) (other)
chain: MANVSKKVSWSGRDRDDEEAAPAARRTARPGGGTPLLNGAGPGAARQSPRSALFRVGHMSSVELDDEAADPDMDPPHPFPKEIPHNEKLLSLKYESLDYDNSENQLFLEEERRINHTAFRTVEIKR
notes: not shown: N-terminal GST tag of pGEX-5X-1 and the vector linker
B1: no binding [1]; no binding [2].

B2: GST fusion protein of the human CIC-7 N-terminus, mutant LL68/69AA (other)
chain: B1 chain with A23L, A24L
notes: as for B1
B2: no binding [1]; no binding [2].
